One assay addresses hIL-18BP-hFc (human) (UniProt O95998). Kind of assay: cell-based or functional assay.
Assay [1] deals with T1, hIL-18 receptor (hIL-18Rα and hIL-18Rβ) (human) (UniProt Q13478).
T1 sequence (looked up) 1: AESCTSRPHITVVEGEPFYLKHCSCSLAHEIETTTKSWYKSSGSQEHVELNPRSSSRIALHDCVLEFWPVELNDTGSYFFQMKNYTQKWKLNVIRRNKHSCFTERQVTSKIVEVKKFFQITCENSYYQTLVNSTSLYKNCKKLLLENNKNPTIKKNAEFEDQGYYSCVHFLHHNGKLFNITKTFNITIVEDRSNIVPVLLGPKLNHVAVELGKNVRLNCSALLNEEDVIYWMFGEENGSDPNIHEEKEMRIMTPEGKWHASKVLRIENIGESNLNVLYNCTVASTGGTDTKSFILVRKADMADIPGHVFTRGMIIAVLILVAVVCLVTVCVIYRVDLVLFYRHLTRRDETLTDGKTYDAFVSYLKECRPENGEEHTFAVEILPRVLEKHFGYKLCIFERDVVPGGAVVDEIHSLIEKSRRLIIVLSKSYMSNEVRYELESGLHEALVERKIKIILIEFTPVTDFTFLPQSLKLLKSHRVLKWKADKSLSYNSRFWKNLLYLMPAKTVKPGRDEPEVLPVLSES
T1 sequence (looked up) 2: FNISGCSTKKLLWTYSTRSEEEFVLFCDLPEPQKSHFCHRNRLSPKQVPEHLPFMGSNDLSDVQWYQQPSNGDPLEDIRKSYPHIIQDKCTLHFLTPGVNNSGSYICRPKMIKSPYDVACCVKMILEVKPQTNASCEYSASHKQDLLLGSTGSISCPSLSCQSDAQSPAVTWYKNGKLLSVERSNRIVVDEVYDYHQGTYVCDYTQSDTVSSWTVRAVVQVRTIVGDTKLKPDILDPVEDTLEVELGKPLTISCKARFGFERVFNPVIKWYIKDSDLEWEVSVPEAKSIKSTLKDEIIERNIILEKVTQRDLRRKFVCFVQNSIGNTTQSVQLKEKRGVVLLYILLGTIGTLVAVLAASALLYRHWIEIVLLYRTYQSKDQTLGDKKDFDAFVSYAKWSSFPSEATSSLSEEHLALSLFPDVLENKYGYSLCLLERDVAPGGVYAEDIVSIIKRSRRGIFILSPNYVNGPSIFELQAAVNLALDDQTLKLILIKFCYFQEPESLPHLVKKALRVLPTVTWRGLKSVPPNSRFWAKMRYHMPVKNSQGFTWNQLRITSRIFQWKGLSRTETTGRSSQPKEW
Kind of assay: cell-based or functional assay.

wild-type human IL-18, sequence (Q14116 37-193 limits assumed): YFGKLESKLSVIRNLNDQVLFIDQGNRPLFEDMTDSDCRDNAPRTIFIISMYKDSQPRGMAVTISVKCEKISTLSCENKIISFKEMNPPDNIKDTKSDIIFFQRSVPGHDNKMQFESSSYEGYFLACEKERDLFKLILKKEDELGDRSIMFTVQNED
hIL-18BP-hFc (human), sequence (O95998 31-194 limits assumed): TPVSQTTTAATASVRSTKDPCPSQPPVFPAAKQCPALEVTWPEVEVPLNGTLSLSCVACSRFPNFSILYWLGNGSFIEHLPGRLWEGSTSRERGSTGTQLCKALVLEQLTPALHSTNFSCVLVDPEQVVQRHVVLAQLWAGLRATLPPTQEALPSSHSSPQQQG

For “wild-type human IL-18 (from UniProt Q14116 37-193) (ligand)”, in the assay with hIL-18BP-hFc (human), the EC50 (nM) + 1 µg/ml hIL-18BP-hFc, in vitro IL-18 Receptor Mediated Signaling Assay came to 8.2 nM; the EC50 (nM) in the Presence of 1 µg/mL hIL-18BP-hFc, PBMC assay (hIFNγ release) stood at 5.9 nM; the EC50 Fold Change (+BP/-BP), PBMC assay (hIFNγ release) worked out at 34.7 fold; the EC50 Fold Change (+BP/-BP), hIL-18 reporter assay came out at 83.3 fold. For the same substance, in assay [1], the EC50 (nM), PBMC assay (hIFNγ release) worked out at 0.17 nM and the EC50 (nM), in vitro IL-18 Receptor Mediated Signaling Assay came out at 0.066 nM.

Source of the values: US20260092093A1.
